# Experimental data reported in US6570069B1, “Nucleic acids encoding plant inhibitors of apoptosis and transgenic cells and plants expressing them” (priority 2000, dated 2003).
# T1: caspase-3 (Homo sapiens, UniProt P42574)
# T1 construct: His6 (C); made in house
# T1 sequence (P42574 29-175 limits assumed): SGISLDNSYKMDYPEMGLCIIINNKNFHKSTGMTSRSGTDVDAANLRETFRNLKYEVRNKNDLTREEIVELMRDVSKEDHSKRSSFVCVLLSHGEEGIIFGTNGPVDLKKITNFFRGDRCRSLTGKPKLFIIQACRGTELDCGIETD
# T1 sequence (P42574 176-277 limits assumed): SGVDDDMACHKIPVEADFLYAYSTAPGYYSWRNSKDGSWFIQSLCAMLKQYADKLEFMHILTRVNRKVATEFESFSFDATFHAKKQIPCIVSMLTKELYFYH
# B1: SfIAP: cellular IAP cloned from Spodoptera frugiperda, protein of 377 amino acids (SEQ ID NO:3); GST-fusion when recombinant (protein, listed as Spodoptera frugiperda)
# chain: MWSCSLPCWNTKKSGLQMDITKVASNGSSSTLTLFKSGSLEAKIRPLAPLMLPTPSYDSNAGSPSLSPSTPCSSSSFSIDKTDNHDTFGFSADTVDMRKEDERMKTFEKWPVSFLSGEQLARNGFYYLGRRDEARCAFCKVEIMRWVEGDDPAKDHQRWAPQCPFVRKLNGTAAADTGSSGQDECGARAAPSGTSPPRMAGPVHPRYASEAARLRSFKDWPRCMRQKPEELAEAGFFYTGQGDKTKCFYCDGGLKDWENHDVPWEQHARWFDRCAYVQLVKGREYVQKVISEACEVSASEAERDVAPARTAEPSPPAEAPENSVDDSKLCKICYAEERNVCFVPCGHVVACAKCALAADKCPMCRRTFQNAVRLYFS
# modifications: GST fusion when recombinant; fall armyworm inhibitor of apoptosis protein (SfIAP)
# B2: CpIAP: baculoviral (CpGV) inhibitor of apoptosis protein; complete ORF expressed myc-tagged or as GST-fusion (protein)
# chain: MSDLRLEEVRLNTFEKWPVSFLSPETMAKNGFYYLGRSDEVRCAFCKVEIMRWKEGEDPAADHKKWAPQCPFVKGIDVCGSIVTTNNIQNTTTHDTIIGPAHPKYAHEAARVKSFHNWPRCMKQRPEQMADAGFFYTGYGDNTKCFYCDGGLKDWEPEDVPWEQHVRWFDRCAYVQLVKGRDYVQKVITEACVLPGENTTVSTAAPVSEPIPETKIEKEPQVEDSKLCKICYVEECIVCFVPCGHVVACAKCALSVDKCPMCRKIVTSVLKVYFS
# modifications: left off: a dimerising Fc or GST
# notes: complete ORF expressed myc-tagged or as GST-fusion
# What was measured:
# [1] = tested on: caspase-9-induced caspase activation and apoptosis in 293T cells; experiment: Caspase-9 overexpression in 293T cells: caspase activity and apoptosis; type: cell-based, human; details: 24-36 hours after transfection
# Description: HEK293 and 293T cells were maintained in DMEM (Irvine Scientific) supplemented with 10% fetal bovine serum, 1 mM L-glutamine and antibiotics. 293 cells (10^6) were co-transfected using Superfect with 0.1 μg Green Fluoresence Protein (GFP) marker plasmid pEGFP (Clontech), 0.25 ug of either pcDNA3-Bax or pcDNA3-Fas, and 1.5 μg of either pcDNA3myc-SfIAP or pcDNA3myc-CpIAP. Alternatively, cells were co-transfected with 0.35 μg pcDNA3-caspase-9-Flag and 2.1 μg of either SfIAP or CpIAP. […] In some cases, lysates were prepared from transfected cells, normalized for total protein content, and analyzed by SDS-PAGE/immunoblotting as described (Deveraux, Q., et al., (1997) supra; Deveraux, Q. L., et al. (1998) supra; Roy, N. et al. (1997) supra; Takahashi, R., et al., (1998), supra.).
# To test this hypothesis, 293T cells were transfected with plasmids encoding pro-caspase-9 alone or in combination with SfIAP and CpIAP. Caspase activity and apoptosis were then assayed 24-36 hours later.
# [2] = target: T1, caspase-3; experiment: Binding to recombinant purified caspase-3; set-up: species or system mammalian
# Description: pGEX4T-1-SfIAP and pGEX4T-1 -CpIAP plasmids were introduced into E. coli strain BL21 (DE3) containing the plasmid pT-Trx. GST fusion proteins were obtained by induction with 0.05 mM IPTG at 25° C. for 8 hours, then purified using glutathione-Sepharose, essentially as described (Deveraux, Q., Welsh, K. & Reed, J. Methods of Enzymology in press). Caspases-3, and -7, containing C-terminal His6-tags, and caspase-8 containing an N-terminal His6-tag were purified as described previously (Stennicke, H. R. & Salvesen, G. S. (I1997) J. Biol. Chem. 272, 25719-25723; Stennicke, H., et al., (1998) J. Biol. Chem. 273, 27084-27090; Stennicke, H., et al., (1999) J. Biol. Chem. 274, 8359-8362). Caspase-9 lacking the CARD domain (ΔCARD-caspase-9) was constructed by truncating the cDNA and introducing a start codon substituting Val139. The resulting cDNA was subcloned into pET-23b and expressed in BL21 (DE3), yielding fully processed enzyme when cells were induced using 0.2 mM IPTG at OD600=0.6 for 4 hrs (Stennicke, H., Deveraux, Q., Humike, E., Reed, J., Dixit, V. & Salvesen, G. (1999) J. Biol. Chem. 274, 8359-8362). […] Concentrations of purified enzymes were determined from absorbance at 280 nm based on the molar absorption coefficients: caspase-3 (A280=26,000M−1 cm−1), caspase-7 (A280=24,500 M−1 cm−1), caspase-9 (A280=30,010M−1 cm−1). […]
# [3] = target: T1, caspase-3; experiment: Inhibition of recombinant purified caspase-3; type: biochemical, mammalian; details: in vitro
# Description: pGEX4T-1-SfIAP and pGEX4T-1 -CpIAP plasmids were introduced into E. coli strain BL21 (DE3) containing the plasmid pT-Trx. GST fusion proteins were obtained by induction with 0.05 mM IPTG at 25° C. for 8 hours, then purified using glutathione-Sepharose, essentially as described (Deveraux, Q., Welsh, K. & Reed, J. Methods of Enzymology in press). Caspases-3, and -7, containing C-terminal His6-tags, and caspase-8 containing an N-terminal His6-tag were purified as described previously (Stennicke, H. R. & Salvesen, G. S. (I1997) J. Biol. Chem. 272, 25719-25723; Stennicke, H., et al., (1998) J. Biol. Chem. 273, 27084-27090; Stennicke, H., et al., (1999) J. Biol. Chem. 274, 8359-8362). Caspase-9 lacking the CARD domain (ΔCARD-caspase-9) was constructed by truncating the cDNA and introducing a start codon substituting Val139. […] Concentrations of purified enzymes were determined from absorbance at 280 nm based on the molar absorption coefficients: caspase-3 (A280=26,000M−1 cm−1), caspase-7 (A280=24,500 M−1 cm−1), caspase-9 (A280=30,010M−1 cm−1).
# Caspase activity was assayed by release of 7-amino-4-trifluoromethyl-coumarin (AFC) from Ac-DEVD or Ac-LEHD-containing synthetic peptides (Calbiochem) using continuous-reading instuments as described (Quan, L. T. et al., (1995) J. Biol. Chem. 270:10377-10379).
Molecule,inhibition of caspase-9-induced apoptosis [1],suppression of activation of downstream DEVD-cleaving caspases induced by overexpression of caspase-9 [1],binding to caspase-3 [2],inhibition of caspase-3 [3]
B1,inhibited caspase-9-induced apoptosis,markedly suppressed activation of downstream DEVD-cleaving caspases,neither bound,nor inhibited
B2,inhibited caspase-9-induced apoptosis,markedly suppressed activation of downstream DEVD-cleaving caspases,neither bound,nor inhibited
